Holding throughout (assay): cell-based or functional assay
Test [1] deals with Fas cell surface receptor (human) (UniProt P25445).
Test [2] has as its target CD28 ligand B7-2 on mouse lymph node accessory cells (mouse) (UniProt P42082).
The target in test [3] is CD28 ligand B7-1 on mouse lymph node accessory cells (mouse) (UniProt Q00609).
In test [4] the target is CD3 (TCR/CD3 complex) on Jurkat cells.

Some results are limits rather than exact numbers.

Sequence of UniProt P42082 (P42082 24-309): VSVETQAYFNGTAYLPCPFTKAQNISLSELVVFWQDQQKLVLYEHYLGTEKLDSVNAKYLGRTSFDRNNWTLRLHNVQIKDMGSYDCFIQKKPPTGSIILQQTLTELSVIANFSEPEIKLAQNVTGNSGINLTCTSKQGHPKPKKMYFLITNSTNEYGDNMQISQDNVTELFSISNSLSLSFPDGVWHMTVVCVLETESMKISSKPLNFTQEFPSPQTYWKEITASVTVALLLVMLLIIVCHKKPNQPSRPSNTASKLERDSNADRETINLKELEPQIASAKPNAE
Sequence of UniProt Q00609 (Q00609 38-306): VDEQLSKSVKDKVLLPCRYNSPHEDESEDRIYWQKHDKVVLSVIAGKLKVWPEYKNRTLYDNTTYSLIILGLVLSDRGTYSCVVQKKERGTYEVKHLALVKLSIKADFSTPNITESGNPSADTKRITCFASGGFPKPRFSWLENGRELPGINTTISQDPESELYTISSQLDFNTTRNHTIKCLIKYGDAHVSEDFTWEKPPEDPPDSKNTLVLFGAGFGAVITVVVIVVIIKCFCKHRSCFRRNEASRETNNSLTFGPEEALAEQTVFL
Sequence of UniProt P25445 (P25445 26-335): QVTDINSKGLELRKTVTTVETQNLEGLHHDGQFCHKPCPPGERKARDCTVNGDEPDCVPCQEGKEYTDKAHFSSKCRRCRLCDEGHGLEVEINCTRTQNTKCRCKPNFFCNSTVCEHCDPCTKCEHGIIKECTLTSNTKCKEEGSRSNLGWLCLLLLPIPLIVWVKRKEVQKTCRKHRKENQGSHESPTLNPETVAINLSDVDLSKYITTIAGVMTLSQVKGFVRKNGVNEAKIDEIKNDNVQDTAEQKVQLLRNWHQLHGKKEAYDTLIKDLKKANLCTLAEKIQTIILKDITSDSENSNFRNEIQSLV

Take “CH-11 anti-Fas monoclonal antibody (Panvera)”: the viability (propidium iodide exclusion) of control (Neo) Jurkat transfectants treated with Fas antibody at 10 ng/ml in test [1] was less than 10%.

Turning to CTLA4Ig (from Repligen) (Fc fusion), the viability of activated Thy-1 positive T cells at 72 hrs in test [2] and in test [3] was 20% throughout.

For the substance anti-CD3 (OKT3) (antibody), the cell death of Neo Jurkat clones treated with plate bound anti-CD3 (propidium iodide exclusion) in test [4] lay in the range of 30 to 60%.

The record behind these values is patent EP0826043B1.
